Tests used:
[1] = molecular target: proHB-EGF mutated at the protease cleavage site, expressed on Ba/F3 cells (HB-EGF_Ba/F3) (human) (UniProt Q99075); assay: flow cytometry, hybridoma culture supernatant on HB-EGF_Ba/F3 cells, FITC-anti-mouse IgG; EXP. 1 (no-mAb control 19.1)
[2] = molecular target: HB-EGF protein (R&D Systems, Inc., 259-HE) (human, UniProt Q99075 63-148); assay: cell-based or functional assay
[3] = molecular target: proHB-EGF mutated at the protease cleavage site, expressed on Ba/F3 cells (HB-EGF_Ba/F3) (human) (UniProt Q99075); assay: flow cytometry, hybridoma culture supernatant on HB-EGF_Ba/F3 cells, FITC-anti-mouse IgG; EXP. 2 (no-mAb control 6.9)

Sequence of proHB-EGF mutated at the protease cleavage site, expressed on Ba/F3 cells (HB-EGF_Ba/F3) (human) (Q99075 20-208 limits assumed, change not shown): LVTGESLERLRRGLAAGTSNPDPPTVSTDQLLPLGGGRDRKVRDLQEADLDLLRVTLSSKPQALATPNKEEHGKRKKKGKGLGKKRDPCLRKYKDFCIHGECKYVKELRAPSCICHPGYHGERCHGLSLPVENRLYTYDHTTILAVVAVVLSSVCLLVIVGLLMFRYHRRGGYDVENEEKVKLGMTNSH
Sequence of HB-EGF protein (R&D Systems, Inc., 259-HE) (Q99075 63-148 limits assumed): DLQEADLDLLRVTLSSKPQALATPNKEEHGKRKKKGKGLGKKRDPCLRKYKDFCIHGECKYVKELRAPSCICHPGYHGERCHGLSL

B1: HC-15 (antibody, V domains shown)
VH: EVQLQQSGPELVKPGASVKISCKASGYSFTGYYMHWVKQSPEKRLEWIGEINPRTGITTYNQKFKAKATLTVDKSSSTAYMQLKSLTSEDSAVYYCARVGSSGPFTYWGQGTLVTVSA
VL: DIVMTQSPSSLSVSAGDKVTMSCKSSQSLLNSRNQKNYLAWYQQKPWQPPKLLIYGASTRESGVPDRFTGSGSGTDFTLTISSVQAEDLAVYYCQNDYSYPFTFGTGTKLEIK
[1]
  FACS (GEO-mean): 594 GEO-mean
[2]
  EC50 (nM) of the growth-inhibiting effect on EGFR_Ba/F3 cells in the presence of HB-EGF (80 ng/mL): 3.8 nM
[3]
  FACS (GEO-mean): 234 GEO-mean
